# According to the RNAGym collection of RNA variant scans (doi:10.1101/gr.219683.116):
# B1: mRNA-splicing (parent)
# chain: AGUUGCUGCUGGGAGCUCCAGCACAGUGAAAUGGACAGAAGGGCAGAGCAA
# Variants of: B1
# Assay: exon inclusion enrichment index; higher = more inclusion; WT1 exon 5 minigene, HEK293
row,Variant,exon inclusion enrichment index
1,G5C C6U G8C C9U U10C G21C C22U,1.79
2,G5C C6U G8C C9U U10C G21C C22A,1.71
3,G5C C6U G8C C9U U10C G21C C22G,3.01
4,G5C C6U G8C C9U U10C U32G G33C,1.97
5,G5C C6U G8C C9U U10C U32G G33U,0.774
6,G5C C6U G8C C9U U10C U32G G33A,0.468
7,G5C C6U G8C C9U U10C G12A G13C,0.692
8,G5C C6U G8C C9U U10C G12A G13A,0.681
9,G5C C6U G8C C9U U10C G12A G13U,0.128
10,G5U C6A U7C G8A U10C,1.56
11,G5U C6A U7C G8A U10A,0.0713
12,G5C C6U U7A G8A C9U U10C,0.757
13,G5C C6U G8C C9U U10C C22A A23C,2.99
14,G5C C6U G8C C9U U10C C22A A23U,1.31
15,G5C C6U G8C C9U U10C C22A A23G,2.07
16,G5C C6U G8C C9U U10C G11U,1
17,G5C C6U G8C C9U U10C G11A,0.742
18,G5C C6U G8C C9U U10C G11C,2.41
19,G5C C6U G8C C9U U10C C19G A20C,1.8
20,G5C C6U G8C C9U U10C C19G A20U,1.72
21,G5C C6U G8C C9U U10C C19G A20G,1.04

row,Variant,exon inclusion enrichment index
1,G5C C6U G8C C9U U10C C22G A23C,0.747
2,G5C C6U G8C C9U U10C C22G A23U,0.248
3,G5C C6U G8C C9U U10C C22G A23G,0.846
4,G5C C6U G8C C9U U10C C24A A25C,3.4
5,G5C C6U G8C C9U U10C C24A A25U,1.94
6,G5C C6U G8C C9U U10C C24A A25G,2.06
7,G5C G8A U10A,0.0176
8,G5U C6A G8C C9U U10C,0.611
9,G5C C6U G8C C9U U10C G13C,0.822
10,G5C C6U G8C C9U U10C G13A,2.18
11,G5C C6U G8C C9U U10C G13U,0.0883
12,G5C C6U G8C C9U U10C C44U,0.527
13,G5C C6U G8C C9U U10C C44G,2.79
14,G5C C6U G8C C9U U10C C44A,3.29
15,G5C C6U G8C C9U U10C C36U,0.515
16,G5C C6U G8C C9U U10C C36A,1.44
17,G5C C6U G8C C9U U10C C36G,1.32
18,G5C C6U U7G C9U U10C,0.743
19,G5C C6U U7C G8U C9U U10C,1.35
20,G5C C6U G8U C9U,0.106
21,G5C C6U G8U U10C,1.11

row,Variant,exon inclusion enrichment index
1,G5C C6U G8C C9U U10C G21U C22U,0.512
2,G5C C6U G8C C9U U10C G21U C22G,1.74
3,G5C C6U G8C C9U U10C G21U C22A,0.661
4,G5C C6U G8C C9U U10C G48A,2.76
5,G5C C6U G8C C9U U10C G48C,2.43
6,G5C C6U G8C C9U U10C G48U,2.26
7,G5C C6U G8C C9U U10C U17G C18A,2
8,G5C C6U G8C C9U U10C U17G C18G,1.96
9,G5C C6U G8C C9U U10C U17G C18U,1.64
10,G5C C6U G8C C9U U10C G42C,3.76
11,G5C C6U G8C C9U U10C G42U,2.42
12,G5C C6U G8C C9U U10C G42A,3.34
13,G5C C6U G8C C9U U10C C18U C19U,0.0402
14,G5C C6U G8C C9U U10C C22U A23G,2.04
15,G5C C6U G8C C9U U10C C22U A23U,1.09
16,G5C C6U G8C C9U U10C C22U A23C,1.22
17,G5C C6U G8C C9U U10C G34A,1.17
18,G5C C6U G8C C9U U10C G34U,0.391
19,G5C C6U G8C C9U U10C G34C,0.84
20,G5C C6U U10C,1.82
21,G5C C6U G8C C9U U10C G33A G34C,0.284

row,Variant,exon inclusion enrichment index
1,G5C C6U G8C C9U U10C G33A G34U,0.283
2,G5C C6U G8C C9U U10C G33A G34A,0.246
3,G5C C6U G8C C9U U10C G15A C16G,1.28
4,G5C C6U G8C C9U U10C G15A C16U,1.27
5,G5C C6U G8C C9U U10C G15A C16A,1.24
6,G5C C6U G8C C9U U10C G26A U27C,3.55
7,G5C C6U G8C C9U U10C G26A U27A,1.96
8,G5C C6U G8C C9U U10C G26A U27G,2.81
9,G5C U7C G8A U10A,0.03
10,G5C U7C G8A U10C,0.327
11,G5C C6U G8U C9U U10C,0.615
12,G5C C6U U7A G8C C9U U10C,1.66
13,G5C C6U U7G G8U C9U U10C,1.07
14,G5C C6U G8C C9U U10C U27C,3.63
15,G5C C6U G8C C9U U10C U27A,2.29
16,G5C C6U G8C C9U U10C U27G,0.69
17,G5C C6U G8C C9U U10C C22G,2.51
18,G5C C6U G8C C9U U10C C22A,1.57
19,G5C C6U G8C C9U U10C C22U,1.44
20,G5C C6U G8C C9U U10C U32A G33A,0.758
